Measurements as given in the Human Domainome abundance scans (Beltran et al. 2025).
± gives the uncertainty stated by the source.

B1: Formin-binding protein 4, residues 200 to 261; numbered along this chain, Q8N3X1 (parent)
chain: SGWQYDTQCSLAGVGIEMGDWQEVWDENTGCYYYWNTQTNEVTWELPQYLATQVQGLQHYQP

Variants of: B1
Assay: abundance fitness (aPCA) (normalised: wild type 0, dead -1); higher = more abundant; growth selection in yeast, the domain comes from the species named
Conditions: Homo sapiens

| Variant | abundance fitness |
| --- | --- |
| SGWQYDTQPSLAGVGIEMGDWQEVWDENTGCYYYWNTQTNEVTWELPQYLATQVQGLQHYQP | -0.365 ± 0.088 |
| SGWQYDTQDSLAGVGIEMGDWQEVWDENTGCYYYWNTQTNEVTWELPQYLATQVQGLQHYQP | 0.052 ± 0.084 |
| SGWQYDTQASLAGVGIEMGDWQEVWDENTGCYYYWNTQTNEVTWELPQYLATQVQGLQHYQP | 0.076 ± 0.055 |
| SGWQYDTQLSLAGVGIEMGDWQEVWDENTGCYYYWNTQTNEVTWELPQYLATQVQGLQHYQP | 0.049 ± 0.05 |
| SGWQYDTQKSLAGVGIEMGDWQEVWDENTGCYYYWNTQTNEVTWELPQYLATQVQGLQHYQP | 0.254 ± 0.073 |
| SGWQYDTQGSLAGVGIEMGDWQEVWDENTGCYYYWNTQTNEVTWELPQYLATQVQGLQHYQP | -0.081 ± 0.058 |
| SGWQYDTQVSLAGVGIEMGDWQEVWDENTGCYYYWNTQTNEVTWELPQYLATQVQGLQHYQP | 0.205 ± 0.048 |
| SGWQYDTQSSLAGVGIEMGDWQEVWDENTGCYYYWNTQTNEVTWELPQYLATQVQGLQHYQP | 0.065 ± 0.059 |
| SGWQYDTQTSLAGVGIEMGDWQEVWDENTGCYYYWNTQTNEVTWELPQYLATQVQGLQHYQP | 0.22 ± 0.069 |
| SGWQYDTQISLAGVGIEMGDWQEVWDENTGCYYYWNTQTNEVTWELPQYLATQVQGLQHYQP | -0.171 ± 0.089 |
| SGWQYDTQWSLAGVGIEMGDWQEVWDENTGCYYYWNTQTNEVTWELPQYLATQVQGLQHYQP | -0.377 ± 0.095 |
| SGWQYDTQCSLDGVGIEMGDWQEVWDENTGCYYYWNTQTNEVTWELPQYLATQVQGLQHYQP | -0.226 ± 0.14 |
| SGWQYDTQCSLLGVGIEMGDWQEVWDENTGCYYYWNTQTNEVTWELPQYLATQVQGLQHYQP | -0.272 ± 0.057 |
| SGWQYDTQCSLKGVGIEMGDWQEVWDENTGCYYYWNTQTNEVTWELPQYLATQVQGLQHYQP | -0.146 ± 0.11 |
| SGWQYDTQCSLPGVGIEMGDWQEVWDENTGCYYYWNTQTNEVTWELPQYLATQVQGLQHYQP | -0.448 ± 0.11 |
| SGWQYDTQCSLNGVGIEMGDWQEVWDENTGCYYYWNTQTNEVTWELPQYLATQVQGLQHYQP | -0.331 ± 0.13 |
| SGWQYDTQCSLTGVGIEMGDWQEVWDENTGCYYYWNTQTNEVTWELPQYLATQVQGLQHYQP | -0.389 ± 0.084 |
| SGWQYDTQCSLEGVGIEMGDWQEVWDENTGCYYYWNTQTNEVTWELPQYLATQVQGLQHYQP | -0.267 ± 0.12 |
| SGWQYDTQCSLIGVGIEMGDWQEVWDENTGCYYYWNTQTNEVTWELPQYLATQVQGLQHYQP | -0.363 ± 0.12 |
| SGWQYDTQCSLHGVGIEMGDWQEVWDENTGCYYYWNTQTNEVTWELPQYLATQVQGLQHYQP | -0.217 ± 0.12 |
| SGWQYDTQCSLYGVGIEMGDWQEVWDENTGCYYYWNTQTNEVTWELPQYLATQVQGLQHYQP | -0.025 ± 0.11 |
| SGWQYDTQCSLCGVGIEMGDWQEVWDENTGCYYYWNTQTNEVTWELPQYLATQVQGLQHYQP | -0.185 ± 0.1 |

| Variant | abundance fitness |
| --- | --- |
| SGWQYDTQCSLMGVGIEMGDWQEVWDENTGCYYYWNTQTNEVTWELPQYLATQVQGLQHYQP | -0.587 ± 0.11 |
| SGWQYDTQCSLGGVGIEMGDWQEVWDENTGCYYYWNTQTNEVTWELPQYLATQVQGLQHYQP | 0.089 ± 0.077 |
| SGWQYDTQCSLSGVGIEMGDWQEVWDENTGCYYYWNTQTNEVTWELPQYLATQVQGLQHYQP | -0.068 ± 0.06 |
| SGWQYDTQCSLQGVGIEMGDWQEVWDENTGCYYYWNTQTNEVTWELPQYLATQVQGLQHYQP | -0.131 ± 0.094 |
| SGWQYDTQCSLFGVGIEMGDWQEVWDENTGCYYYWNTQTNEVTWELPQYLATQVQGLQHYQP | -0.465 ± 0.13 |
| SGWQYDTQCSLVGVGIEMGDWQEVWDENTGCYYYWNTQTNEVTWELPQYLATQVQGLQHYQP | -0.041 ± 0.06 |
| SGWQYDTQCSYAGVGIEMGDWQEVWDENTGCYYYWNTQTNEVTWELPQYLATQVQGLQHYQP | -0.57 ± 0.12 |
| SGWQYDTQCSGAGVGIEMGDWQEVWDENTGCYYYWNTQTNEVTWELPQYLATQVQGLQHYQP | -0.678 ± 0.084 |
| SGWQYDTQCSPAGVGIEMGDWQEVWDENTGCYYYWNTQTNEVTWELPQYLATQVQGLQHYQP | -0.636 ± 0.12 |
| SGWQYDTQCSIAGVGIEMGDWQEVWDENTGCYYYWNTQTNEVTWELPQYLATQVQGLQHYQP | -0.061 ± 0.093 |
| SGWQYDTQCSKAGVGIEMGDWQEVWDENTGCYYYWNTQTNEVTWELPQYLATQVQGLQHYQP | -0.469 ± 0.14 |
| SGWQYDTQCSNAGVGIEMGDWQEVWDENTGCYYYWNTQTNEVTWELPQYLATQVQGLQHYQP | -0.79 ± 0.17 |
| SGWQYDTQCSVAGVGIEMGDWQEVWDENTGCYYYWNTQTNEVTWELPQYLATQVQGLQHYQP | -0.192 ± 0.059 |
| SGWQYDTQCSWAGVGIEMGDWQEVWDENTGCYYYWNTQTNEVTWELPQYLATQVQGLQHYQP | -0.381 ± 0.11 |
| SGWQYDTQCSCAGVGIEMGDWQEVWDENTGCYYYWNTQTNEVTWELPQYLATQVQGLQHYQP | -0.429 ± 0.1 |
| SGWQYDTQCSAAGVGIEMGDWQEVWDENTGCYYYWNTQTNEVTWELPQYLATQVQGLQHYQP | -0.731 ± 0.088 |
| SGWQYDTQCSFAGVGIEMGDWQEVWDENTGCYYYWNTQTNEVTWELPQYLATQVQGLQHYQP | -0.714 ± 0.14 |
| SGWQYDTQCSMAGVGIEMGDWQEVWDENTGCYYYWNTQTNEVTWELPQYLATQVQGLQHYQP | -0.625 ± 0.12 |
| SGWQYDTQCSDAGVGIEMGDWQEVWDENTGCYYYWNTQTNEVTWELPQYLATQVQGLQHYQP | -0.429 ± 0.12 |
| SGWQYDTQCSEAGVGIEMGDWQEVWDENTGCYYYWNTQTNEVTWELPQYLATQVQGLQHYQP | -0.483 ± 0.097 |
| SGWQYDTQCSHAGVGIEMGDWQEVWDENTGCYYYWNTQTNEVTWELPQYLATQVQGLQHYQP | -0.559 ± 0.12 |
